Data published in patent publication US20230399393A1, “METHODS TO EXTEND HEALTH-SPAN AND TREAT AGE-RELATED DISEASES” (National University of Singapore, priority 2020, published 2023).

What was measured:
C57Bl/6J mice [1] = assay: Mouse Frailty Index in aged mice treated from 55 to 110 weeks of age; format: in vivo; details: mice aged 110 weeks; 40 mg/kg IP every 3 weeks from age 55 weeks; vs isotype control IgG
Procedure: C57Bl/6J mice aged 46 weeks were obtained from the Jackson Laboratory, and randomised on a 1:1 basis to receive either X203 or an isotype control IgG antibody.
(§1) From age 55 weeks (human equivalent of ˜45 years old (i.e. middle age)) to age 110 weeks (human equivalent of ˜75 years old), mice were administered with 40 mg/kg of either X203 or isotype-matched control IgG via intra-peritoneal injection every 3 weeks.
(§2) At age 110 weeks, frailty was assessed using the Mouse Frailty Index described in Rizzo et al. Curr Protoc Mouse Biol. (2018) 8(2):e45, which is hereby incorporated by reference in its entirety. In this protocol, mice are individually observed and evaluated for the absence or presence and severity of 27 different characteristics each scored as 0, 0.5, or 1 based on level of severity. A frailty index score is calculated as the cumulative score of all measures. As a separate measurement of frailty, core body temperature was recorded, as core body temperature is known to decrease with increasing frailty in mice (Reynolds et al., Mechanisms of Ageing and Development (1985) 30(2):143-52). Data were analysed by 2-way ANOVA.
End-point frailty scoring was performed 2 days prior to sacrifice using the accepted frailty scoring system (Sukoff Rizzo et al. 2018, Current Protocols in Mouse Biology 8 (2): e45.)

C57Bl/6J mice [2] = assay: Core body temperature of aged mice; format: in vivo, mouse; details: mice aged 110 weeks; 40 mg/kg IP every 3 weeks from age 55 weeks; vs isotype control IgG
Procedure: as §1, §2

C57Bl/6J mice [3] = assay: Analysis of organ fibrosis (hydroxyproline assay, Masson's trichrome); format: in vivo, mouse; details: at 110 weeks; heart, lung, kidney, skeletal muscle; vs IgG control antibody
Procedure: C57Bl/6J mice are randomised to receive either X203 or IgG control antibody at a dose of 40m/kg via IP injection every 3 weeks from age 55 weeks to age 110 weeks.
At 110 weeks, global tissue collagen content is evaluated in the heart, lung, kidney and skeletal muscle tissues by hydroxyproline assay. Tissue sections from these tissues are also subjected to Masson's trichrome staining and analysed by light microscopy (blinded to treatment group).

C57BL6/J mice = assay: Inflammatory markers in liver, kidney and muscle of old mice (QPCR); format: in vivo, mouse; details: 40 mg/kg once every three weeks, vs IgG
Procedure: FIG. 52. A neutralizing IL-11 antibody reduces multiple markers of inflammation in kidneys of old mice. Wild-type C57BL6/J mice were treated with an intra-peritoneal injection of anti-IL11 (X203; 40 mg/kg, once every three weeks) or an isotype IgG control (11E10, 40 mg/kg, once every three weeks) from 55 weeks of age until 110 weeks of age. 110 week-old mice were sacrificed and organs harvested, snap frozen and RNA extracted using standard procedures. Samples were analyzed by quantitative RT-PCR (QPCR) using primers specific for Ccl2, Ccl5, Tnfα, Il1β, Il11, Il6 or Gapdh.
FIG. 53. A neutralizing IL-11 antibody reduces multiple markers of inflammation in livers of old mice. Wild-type C57BL6/J mice were treated with an intra-peritoneal injection of anti-IL11 (X203; 40 mg/kg, once every three weeks) or an isotype IgG control (11E10, 40 mg/kg, once every three weeks) from 55 weeks of age until 110 weeks of age. 110 week-old mice were sacrificed and organs harvested, snap frozen and RNA extracted using standard procedures. Samples were analyzed by quantitative RT-PCR (QPCR) using primers specific for Ccl2, Ccl5, Tnfα, Il1β, Il11, Il6 or Gapdh.
FIG. 54. A neutralizing IL-11 antibody reduces multiple markers of inflammation in skeletal muscle (soleus) of old mice. Wild-type C57BL6/J mice were treated with an intra-peritoneal injection of anti-IL11 (X203; 40 mg/kg, once every three weeks) or an isotype IgG control (11E10, 40 mg/kg, once every three weeks) from 55 weeks of age until 110 weeks of age. 110 week-old mice were sacrificed, and organs harvested, snap frozen and RNA extracted using standard procedures. Samples were analyzed by quantitative RT-PCR (QPCR) using primers specific for Ccl2, Ccl5, Tnfα, Il1β, Il11, Il6 or Gapdh. […]
Total RNA was extracted from AML12 or snap-frozen tissues using Trizol (Invitrogen) and RNeasy Mini Kit (Qiagen). […] Expression data were normalized to GAPDH mRNA expression and fold change was calculated using 2^−ΔΔct method.

C57Bl/6J mice [4] = assay: In vivo administration of anti-IL11 (X203) to old mice, summary of multi-morbidity; design: species or system mouse; details: vs IgG
From the text: Furthermore, the data disclose that: • Administration of MEK1/2 inhibitor U0126 to cells stimulated with IL11 prevents ERK-mediated inactivation of LKB1/AMPK that stops IL11-induced mTORC1/P70S6K activation. • Administration of anti-IL11 (X203) vs IgG control to mice aged 55-110 weeks old results in lesser ERK activation, restored LKB1/AMPK activity and reduced mTORC1 activity and senescence markers (p16/p21). This is seen across tissues. • Mice deleted for IL11RA1 at 110 weeks old mirror the effects seen with X203 administration and have a signaling profile more similar to young mice, across tissues. • Administration of X203 vs IgG to old mice improves multi-morbidity with better serum levels of fats, glucose, lesser tissue fibrosis, better kidney function, reduced tissue inflammation, reduced obesity and lesser frailty. • Administration of X203 vs IgG to old mice improves markers of inflammation (CCL2, CCL5, TNFa, IL1b, IL11 and IL6)—an altered intercellular communication Hallmark of ageing—across tissues, including liver, kidney and skeletal muscle.
Male and female C57Bl/6J mice aged 46 weeks were purchased from the Jackson Laboratory. Mice were randomised on a 1:1 basis to receive either 40 mg/kg of X203 or an isotype control IgG antibody (11E10), every 3 weeks (IP), starting from 55 weeks of age. Mice were sacrificed at 110 weeks of age for blood and tissues collection. […]

B1: X203: mouse anti-mouse IL-11 IgG antagonist antibody; VH SEQ ID NO:22, VL SEQ ID NO:23 (antibody, V domains shown)
VH: EVQLQQSGPELVKPGASVKIPCKASGYTFTDYNMDWVKQSHGKSLEWIGDINPHNGGPIYNQKFTGKATLTVDKSSSTAYMELRSLTSEDTAVYYCARGELGHWYFDVWGTGTTVTVSS
VL: DIVLTQSPASLAVSLGQRATISCRASKSVSTSGYSYIHWYQQKPGQPPKLLIYLASNLDSGVPARFSGSGSGTDFTLNIHPVEEEDAATYYCQHSRDLPPTFGGGTKLEIK
C57Bl/6J mice [1]
  frailty index: significant reduction
C57Bl/6J mice [2]
  body temperature: significantly higher
C57Bl/6J mice [3]
  fibrosis in the tissues analysed: less
C57BL6/J mice
  markers of inflammation (CCL2, CCL5, TNFa, IL-1 b, IL-11 and IL-6) in kidney: reduces
  markers of inflammation (CCL2, CCL5, TNFa, IL-1 b, IL-11 and IL-6) in liver: reduces
  markers of inflammation (CCL2, CCL5, TNFa, IL-1 b, IL-11 and IL-6) in skeletal muscle: reduces
C57Bl/6J mice [4]
  multi-morbidity (serum levels of fats, glucose, tissue fibrosis, kidney function, tissue inflammation, obesity, frailty): improves
